In patent publication US8003360B2, “Debaryomyces castellii phytase” (Adisseo France S.A.S., priority 2005, dated 2011):

What was measured:
[1] = target: Debaryomyces castellii CBS 2923 phytase, native (wild type), SEQ ID No. 2 (Schwanniomyces capriottii, UniProt A2TBB4); assay: Influence of effectors on the phytase activity; format: biochemical; settings: Table 3
Description: (§1) The amount of phosphate released is measured by colorimetery. The visualizing solution, prepared extemporaneously, contains iron sulphate (380 mM, 1 volume) and ammonium heptamolybdate (12 mM, 4 volumes). The absorbance at 700 nm is measured after 30 minutes of visualization at ambient temperature (1 volume of reaction medium+1 volume of visualizing solution), using a UV/visible spectrophotometer (Beckman DU 530).

D. castellii phytase = assay: Influence of effectors on phytase activity; format: biochemical, Debaryomyces castellii
[2] = tested on: Schwanniomyces occidentalis phytase; settings: Segueilha et al., 1992; cited from earlier work
[3] = tested on: Schwanniomyces occidentalis phytase; settings: Segueilha et al., 1992; cited from earlier work; remark: listed apart in the source
[4] = target: recombinant Debaryomyces castellii CBS 2923 phytase (recPhyt, expressed in Pichia pastoris), SEQ ID No. 2 (Schwanniomyces capriottii, UniProt A2TBB4); assay: Hydrolysis of inositol phosphates by the recombinant phytase (chromatogram); format: biochemical; settings: InsP3 compared with InsP4, InsP5 and InsP6
Description: (§2) Samples are taken at various times for 6 hours. The reaction is stopped by heating at 100° C. (10 minutes).
(§3) J. Agric. Food Chem. 45, 431-436; Türk, M., Sandberg, A. S., Carlsson, N. G. and Andlid, T. (2000) Inositol hexaphosphate hydrolysis by baker's yeast. Capacity, kinetics, and degradation products. J. Agric. Food Chem. 48, 100-104). […] This system makes it possible to detect the Ins P2 to Ins P6, but only the various isomers of Ins P4 and Ins P5 can be separated.
See Example 1, 7.5 and 7.6.

[5] = tested on: Debaryomyces castellii CBS2923 phytase; assay: Influence of the environment (additives, calcium, buffer molarity) on thermostability of the phytase; format: physicochemical; settings: control: 250 mM acetate buffer pH 4, 1 mM calcium chloride, no additive
Description: At the end of treatment, the extract is cooled in water at +4° C. […] Three types of elements are tested: • sugars or sugar alcohol: sucrose, lactose, trehalose, arabinose, glycerol, • the absence of calcium, • the molarity of the buffer. […] At the end of treatment, the extract is cooled in water to +4° C. […] Materials and Methods).

[6] = pH-stability and temperature-stability of the phytase; format: physicochemical; settings: for denaturation: 1 hour
Description: FIG. 4: Study of the pH-stability and temperature-stability. The phytase activity of D. castellii is measured after treatment of the extract at various pHs for 1 hour at two temperatures (40° C. or 60° C.). The activity is measured at pH 4.
The phytase activity is measured after incubation of the enzyme at 2 temperatures (40 and 60° C.) in buffers whose pH is between 2 and 8 (FIG. 4). […] On the other hand, in the range 3 to 7, from 80 to 100% of activity is conserved at 40° C. At 60° C., the phytase is more highly denatured at pH 3 and pH 8.

[7] = Hydrolysis kinetics of InsP6 followed by NMR; format: biochemical
Description: The time period between two spectra is 23 minutes. After an overnight period, 20 μl of enzyme were added in order to accelerate the reaction. After 16 h, the hydrolysis is complete and the spectrum characteristic of inositol is obtained (top spectrum). These kinetics clearly show the successive appearance of InsP5, of InsP4 and of InsP3.
FIG. 10: Faster kinetics making it possible to follow the complete hydrolysis of InsP6 (600 MHz, 17° C., 500 μl D2O, 3.8 mM of InsP6, pH 4.0, 5 μl of enzyme). A spectrum was recorded every 3 min for 20 h (400 spectra). After 10 hours, the hydrolysis is virtually complete. The spectra plotted correspond to one spectrum out of 10 (30 min between two spectra). Some characteristic signals are annotated.
The sample used to follow the hydrolysis by NMR is prepared from a stock solution of InsP6/phosphate buffer, 96/700 mM in D2O. […] Depending on the desired rate of hydrolysis, a greater or smaller amount of enzyme (1 to 20 μl of the stock solution at 3 U/ml) is added. The kinetics are followed at 17° C. by recording a spectrum (32 scans) every 3 minutes for 20 hours (400 spectra). Using the spectra characteristic of the various inositol phosphates determined previously, their appearance and disappearance can be followed over the entire kinetics.
Depending on the temperature (in this case 17° C.) and on the concentration of enzyme, kinetics can be slow (1 μl of enzyme) and the appearance of the first intermediates readily observed. It is under these conditions that the spectral characteristics of InsP5 were obtained and that the successive appearance of Ins P5, Ins P4 and Ins P3 is clearly seen.
In the presence of 5 μl of enzyme, the formation of Ins P2, Ins P1 and inositol is observed. In the intermediate phase, the complexity of the spectra obtained accounts for the mixture of the Ins Pns. After hours, the hydrolysis is not complete. In the presence of 20 μl of enzyme, complete hydrolysis was obtained in approximately 4 hours. […]

[8] = Hydrolysis of phytic acid followed over time (HPIC, phosphate assay); format: biochemical; settings: after 300 minutes of hydrolysis, pH 4, 0.6 U/ml
Description: as §2, §3
The hydrolysis conditions are described in Materials and Methods. The appearance of the various Ins Pn is monitored over time. After 15 minutes of hydrolysis, Ins P6 has virtually disappeared, 4 major peaks are detected and correspond to Ins (1,2,4,5,6) P5, Ins (1,2,5,6) P4, and peaks of Ins P3, Ins P2 and Ins P1 not identified by this method (FIG. 7). The assignment of the Ins P5 and Ins P4 is confirmed by the addition of authentic inositol samples. After 120 minutes of hydrolysis, the Ins P3 and Ins P1 peaks are predominant. This could reflect a much slower rate of hydrolysis of Ins P3 compared with Ins P4, 5 and 6. […] The enzyme releases all the phosphates. The characterization of the Ins Pn fractions separated by chromatography is carried out by NMR analysis.

[9] = Heat denaturation / heat stability of the phytase; format: physicochemical
Description: FIG. 3: Heat denaturation of the D. castellii phytase. […] The activity is then measured at 37° C. for 20 min.
(§4) The effect of pH on the phytase activity is determined using the following buffer solutions: 200 mM glycine-HCl, pH 2-3.5; 200 mM sodium acetate-acetic acid, pH 3.5-7; and 200 mM tris-HCl, pH 7-9. The reactions are carried out at +37° C. using the phytate as substrate. The optimum temperature is determined by varying the temperature from +30° C. to +80° C. […] After the heat treatment, the mixture is cooled in ice and the phytase activity is determined using the phytate as substrate.
It is denatured above 68° C., with a 70% loss of activity after one hour at 70° C. The energy for activation of the denaturation, calculated by means of the Arrhenius representation, is 606 kJ/mol.

[10] = Phytase activity as a function of temperature; format: biochemical; settings: reaction of phytate hydrolysis
Description: FIG. 2: Activity of the D. castellii phytase as a function of temperature. The activity is measured at pH 4, at 37° C. for 20 minutes.
as §4
The optimum temperature is determined on the native phytase, by measuring the phytase activity at various temperatures: from 30 to 80° C. (FIG. 2).

[11] = Specific phytase activity by phytate hydrolysis; format: biochemical; settings: native D. castellii phytase, purification steps
Description: The protein content is determined by the Bradford method (Bradford, M. (1976) A rapid and sensitive method for the quantification of microgram quantities of proteins utilizing the principle of protein-dye binding. Anal. Biochem. 72, 248-254). (Biorad Protein Assay Dye Reagent Concentrate, BIORAD 500-0006), the absorbance is measured at 595 nm (Beckman DU 530 UV/visible spectrophotometer). The calibration is carried out with a bovine serum albumin range.
One enzymatic unit (U) is defined as the amount of enzyme which releases one μmol of inorganic phosphate in one minute.
as §1

[12] = Storage stability of the phytase at -20° C. at various pHs; format: physicochemical

Molecule: O=C(O)c1cc[c]([Hg][Cl])cc1 [PCMB]
- effect on the phytase activity (in words) [1]: not sensitive
- % activity (D. castellii phytase; effector 3 mM, phytate control = 100): 94.5%
- effect on phytase activity (D. castellii phytase; inhibitors tested, see Table 3): absence of effect
- effect on phytase activity [2]: greatly inhibits
- inhibition of the activity (in words) [3]: greatly inhibits

Molecule: InsP3
- affinity (in words) [4]: weaker affinity

B1: D. castellii phytase: Debaryomyces castellii CBS 2923 phytase of SEQ ID No. 2, a secreted glycosylated 3-phytase (protein, listed as Debaryomyces castellii)
chain: MVSVSKLINNGLLLVGQGAYQDLASPQQASVEQYNIIRFLGGAAPYIQNKGFGISTDIPDQCTLEQVQLFSRHGERYPSTGSGKKYKAVYEKLMSYNGTFKGELAFLNDDYEYFVPDSVYLEKETSPKNSDSIYAGTTDAMKHGIAFRTKYGELFDTNDTLPVFTSNSGRVYQTSQYFARGFMGDDFSNDTVKTNIISEDADMGANSLTPRDGCFNYNENANTAIVDEYTTEYLTKALNRFKASNPGLNITEDDVSNLFGYCAYELNVKGASPMCDIFTNEEFIQYSYSVDLDDYYSNSAGNNMTRVIGSTLLNASLELLNHDKNENKIWLSFTHDTDIEIFHSAIGILIPDEDLPVDYTPFPSPYSHVGITPQGARTIIEKYACGNESYVRYVINDAVIPIKKCSSGPGFSCNLNDYNDYVAERVAGTNYVEQCGNNNASAVTFYWDYETTNYTASLINS
modifications: glycosylated
- activity after 1 h at 20° C. [5]: 99
- activity after 1 h at 66.5° C. [5]: 47
- activity after 1 hour of contact ([6]; pH 2 and pH 8, 40 and 60° C.): complete loss of activity
- denaturation ([6]; pH 8, acetate buffer): complete
- denaturation ([6]; pH 8, tris HCl buffer): 50%
- time after which hydrolysis of InsP6 is complete ([7]; 1.7 mM InsP6, pH 4.0, 17° C., 1 μl enzyme, 20 μl added after an overnight period): 16 h
- time after which hydrolysis of InsP6 is virtually complete ([7]; 3.8 mM InsP6, pH 4.0, 5 μl of enzyme, 17° C.): ~10 h
- time to complete hydrolysis of InsP6 ([7]; 20 μl of enzyme, 17° C.): approximately 4 hours
- amount of phosphate assayed as share of the potential phosphates of the phytate molecule [8]: 100%
- loss of activity ([9]; after one hour at 70° C.): 70%
- energy for activation of the denaturation (Arrhenius representation) ([9]; heat denaturation): 145 kcal/mol
- temperature above which the enzyme is denatured ([9]; heat denaturation study): above 68 °C
- temperature up to / below which the enzyme is stable ([9]; heat denaturation study): up to 66 °C
- temperature at which the enzyme is stable for one hour ([9]; in 125 mM acetate buffer, pH 4): 66 °C
- temperature at which the enzyme is stable for one hour ([9]; in water): 60 °C
- activation energy calculated according to the Arrhenius representation [10]: 9.08 kcal/mol
- Specific activity [11]: 156 U/mg
- denaturation after storage ([12]; 21 days at -20° C., pHs of less than 5): completely denatured
- denaturation after storage ([12]; 67 days at -20° C., pHs of between 5 and 7): no denaturation
